Biological target: RSV fusion (F) glycoprotein (respiratory syncytial virus) (UniProt P12568)
Test: SPR (Biacore); the partner is not named in the row, RSV F protein is taken from the legend of FIG. 4

## NUMAX™ (motavizumab), MEDI-524 Mab (antibody)
  Kd: 4 pM
